Laboratory results reported in US20240102021A1.

Molecular target: MC1R (endogenous, MNT-1 cells) (human) (UniProt Q01726)
Test: cell-based or functional assay

UniProt Q01726, sequence (Q01726 whole entry): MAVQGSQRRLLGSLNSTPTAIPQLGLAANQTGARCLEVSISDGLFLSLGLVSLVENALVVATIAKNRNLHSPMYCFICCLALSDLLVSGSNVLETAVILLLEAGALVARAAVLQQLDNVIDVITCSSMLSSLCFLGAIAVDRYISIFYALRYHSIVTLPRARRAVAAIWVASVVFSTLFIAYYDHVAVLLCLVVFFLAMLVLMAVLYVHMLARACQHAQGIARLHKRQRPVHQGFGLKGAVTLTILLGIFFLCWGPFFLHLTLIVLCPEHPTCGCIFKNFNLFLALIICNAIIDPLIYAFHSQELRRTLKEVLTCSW

increase in cellular cAMP on αMSH stimulation (Epac H187 FRET, normalized to FSK+IBMX), MNT-1 cells expressing OPN3-MCh | increase in cellular cAMP (Epac H187 FRET ratio CFP/YFP, normalized to FSK+IBMX), control MCh-expressing MNT-1 cells | Substance
10% | – | OPN3-cMCh (from UniProt Q9H1Y3 1-402) (receptor)
– | 50% | NDP-αMSH (peptide)
